± gives the standard deviation of the averaged measurements.
These sequences were tested on Saccharomyces cerevisiae (assay: protein stability index of tFT-peptide fusion (C-terminal peptide) (PSI (0-1 scale)); higher = more stable (slower turnover)). Details: genetic background: wild type; temperature: 30 C.
Procedure: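 MPS profiling in S. cerevisiae of the yeast C-terminome library: the last 12 aa of each annotated ORF are fused to the C-terminus of a sfGFP-mCherry timer, after a GGGS linker. Cells are FACS-sorted into 8 mCherry/sfGFP bins and deep-sequenced. PSI runs from 0 (unstable) to 1 (stable); wild type and das1Δ backgrounds, two technical replicates each.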

Going from TVETLLKLFTKS [SLD7 C-terminal 12 aa] to “TVRKGVYMRLYY [YNL146C-A C-terminal 12 aa]”, the protein stability index falls from 0.69379 ± 0.00044 to 0.634 ± 0.036.

First: TYYRRRATANSL [YMR155W C-terminal 12 aa]
Second: VACCGCNMTVAY [YIL058W C-terminal 12 aa]
The protein stability index of the first is higher: 0.676 ± 0.011 for the first, 0.533 ± 0.029 for the second.

First: VANTTNMNMNLM [DIA1 C-terminal 12 aa]
Second: VDKYEAGMSITK [SWC4 C-terminal 12 aa]
The protein stability index of the first is higher: 0.737 ± 0.027 for the first, 0.671 ± 0.03 for the second.

Compared with “VFEISNKELFLT [YIL029W-A C-terminal 12 aa]”, VFLKKDTDIYIC [YML084W C-terminal 12 aa] is higher in protein stability index: 0.452 ± 0.016 for the first, 0.612 ± 0.03 for the second.

First: VFRIVARGYVGW [BBC1 C-terminal 12 aa]
Second: VFVTGILSTVYI [AIT1 C-terminal 12 aa]
The protein stability index of the first is higher: 0.691 ± 0.046 for the first, 0.6108 ± 0.0049 for the second.

VGELDIKFDLKF [RTF1 C-terminal 12 aa] and VGLDDLKKLVTK [PCF11 C-terminal 12 aa] are within error of each other in protein stability index: 0.696 ± 0.0088 for the first, 0.744 ± 0.099 for the second.

Compared with VIAQIDELFEGY [THG1 C-terminal 12 aa], VIFLFLRTIHFL [PGC1 C-terminal 12 aa] is lower in protein stability index: 0.711 ± 0.019 for the first, 0.142 ± 0.0083 for the second.

VIGEKGITDSSD [DMC1 C-terminal 12 aa] and VIWDNNTKFCWF [YGR111W C-terminal 12 aa] are within error of each other in protein stability index: 0.721 ± 0.018 for the first, 0.73063 ± 0.00022 for the second.

VIWEKVYESKTK [LSM8 C-terminal 12 aa] and VIWQERETTANK [EMI1 C-terminal 12 aa] are within error of each other in protein stability index: 0.761 ± 0.057 for the first, 0.676 ± 0.038 for the second.

VKHKVVSVDEDN [MPM1 C-terminal 12 aa] and VKKEPLNEESKP [MIA40 C-terminal 12 aa] are within error of each other in protein stability index: 0.6529 ± 0.001 for the first, 0.679 ± 0.026 for the second.

First: VKNSPRLLLFFI [YOL160W C-terminal 12 aa]
Second: VKSNPQPAYTFQ [YFR012W-A C-terminal 12 aa]
The protein stability index of the first is lower: 0.53 ± 0.011 for the first, 0.6969 ± 2.8e-05 for the second.

VLDDAEETKESH [ATP14 C-terminal 12 aa] and VLERVSRGAGSH [COF1 C-terminal 12 aa] are within error of each other in protein stability index: 0.67 ± 0.023 for the first, 0.688 ± 0.036 for the second.

First: VLLTAYKKLLTK [KEG1 C-terminal 12 aa]
Second: VLMKQLDEIIRK [BUD14 C-terminal 12 aa]
The protein stability index of the first is lower: 0.62079 ± 0.00024 for the first, 0.704 ± 0.058 for the second.

VLPTWADKVINE [SPE4 C-terminal 12 aa] and VMDDIISELTNE [KRE28 C-terminal 12 aa] are within error of each other in protein stability index: 0.677 ± 0.012 for the first, 0.687 ± 0.046 for the second.

VNQKQPPPQSYV [YEL067C C-terminal 12 aa] and VPLESTKRQPLH [YBR053C C-terminal 12 aa] are within error of each other in protein stability index: 0.7048 ± 0.00045 for the first, 0.704 ± 0.026 for the second.

Going from VPPRSASASSQR [SPC97 C-terminal 12 aa] to VPQEDDRLHKLK [AIM3 C-terminal 12 aa], the protein stability index rises from 0.684 ± 0.015 to 0.765 ± 0.039.

VQLIDGPEEMHR [SHO1 C-terminal 12 aa] and VQWSRPRRGDVL [LAM6 C-terminal 12 aa] are within error of each other in protein stability index: 0.663 ± 0.008 for the first, 0.703 ± 0.051 for the second.

Compared with VRGRKSRNTSRV [REP2 C-terminal 12 aa], VSDAMFDQGDVF [GDH1 C-terminal 12 aa] is lower in protein stability index: 0.755 ± 0.035 for the first, 0.707 ± 0.012 for the second.

Going from VSKLNGFSFTDI [ASE1 C-terminal 12 aa] to “VSYFSIFSLFFF [YKL096C-B C-terminal 12 aa]”, the protein stability index falls from 0.674 ± 0.016 to 0.603 ± 0.016.

VVDLIMEYLQDT [YDL057W C-terminal 12 aa] and VVFLSVLKRNDL [YOL099C C-terminal 12 aa] are within error of each other in protein stability index: 0.741 ± 0.078 for the first, 0.772 ± 0.11 for the second.

VVPVLMGNMKVA [YEL073C C-terminal 12 aa] and VWTLELSVIGVQ [WHI2 C-terminal 12 aa] are within error of each other in protein stability index: 0.634 ± 0.053 for the first, 0.572 ± 0.011 for the second.

WAINESEGYGFR [HUL4 C-terminal 12 aa] and WAREQQKRQLSL [KAP95 C-terminal 12 aa] are within error of each other in protein stability index: 0.708 ± 0.051 for the first, 0.729 ± 0.019 for the second.

First: WKEVLKFPKSFN [HXT15 C-terminal 12 aa]
Second: WKKFIPKTWLSS [CQD2 C-terminal 12 aa]
The protein stability index of the first is higher: 0.714 ± 0.031 for the first, 0.4878 ± 0.0047 for the second.

Compared with WKKFLKFSKNSD [HXT13 C-terminal 12 aa], WKLLDDSELGWY [RGT1 C-terminal 12 aa] is higher in protein stability index: 0.685 ± 0.039 for the first, 0.804 ± 0.052 for the second.

WLKDQIIGEMTV [CAL4 C-terminal 12 aa] and WPVTKPEDTKDN [ZWF1 C-terminal 12 aa] are within error of each other in protein stability index: 0.678 ± 0.025 for the first, 0.67 ± 0.018 for the second.

Compared with WRPQQPGQIEQA [YLR101C C-terminal 12 aa], WTKDLGCWSLYK [HIR1 C-terminal 12 aa] is higher in protein stability index: 0.6668 ± 0.00094 for the first, 0.6994 ± 0.0037 for the second.

WTNYLEKESEKD [RUD3 C-terminal 12 aa] and YAEGSLVKTEKL [FAA2 C-terminal 12 aa] are within error of each other in protein stability index: 0.693 ± 0.045 for the first, 0.698 ± 0.016 for the second.

Compared with YCFAKNDLFFNN [POM152 C-terminal 12 aa], YCPELGKTECFD [FMP30 C-terminal 12 aa] is lower in protein stability index: 0.716 ± 0.011 for the first, 0.69 ± 0.0088 for the second.

YDANGSSSTIKR [MAM3 C-terminal 12 aa] and YDEIVPLMSDEE [ECM21 C-terminal 12 aa] are within error of each other in protein stability index: 0.7007 ± 0.00097 for the first, 0.716 ± 0.057 for the second.

YDLQALFKYFFS [ADY3 C-terminal 12 aa] and YFKVFDWCKQKR [CLB6 C-terminal 12 aa] are within error of each other in protein stability index: 0.64 ± 0.022 for the first, 0.684 ± 0.043 for the second.

YISDHIWKTSSH [YOR302W C-terminal 12 aa] and YKNRPNKEKDTL [STB6 C-terminal 12 aa] are within error of each other in protein stability index: 0.698 ± 0.035 for the first, 0.688 ± 0.047 for the second.

First: YKSKRNTPTMLS [ISU1 C-terminal 12 aa]
Second: YLARRKPSIELR [YPR170W-B C-terminal 12 aa]
The protein stability index of the first is lower: 0.653 ± 0.026 for the first, 0.7212 ± 0.0052 for the second.

First: YLKNFFVKQKVV [ERP5 C-terminal 12 aa]
Second: YLLENEPKDSFA [DCP1 C-terminal 12 aa]
The protein stability index of the first is lower: 0.16 ± 0.026 for the first, 0.731 ± 0.029 for the second.

Compared with YLNCTEREALRP [AEP1 C-terminal 12 aa], “YNIKRVLGVVYC [YAL067W-A C-terminal 12 aa]” is lower in protein stability index: 0.752 ± 0.076 for the first, 0.362 ± 0.0077 for the second.

YNPGLSMDFLTA [BCD1 C-terminal 12 aa] and YNSLKKGASKSK [CNL1 C-terminal 12 aa] are within error of each other in protein stability index: 0.714 ± 0.014 for the first, 0.74 ± 0.071 for the second.

YNTTSITNSTSW [SRL1 C-terminal 12 aa] and YPGAKTLTYTSR [CMI8 C-terminal 12 aa] are within error of each other in protein stability index: 0.722 ± 0.09 for the first, 0.673 ± 0.01 for the second.

YPTFDDNNFFAL [RFA2 C-terminal 12 aa] and YSDEASAQKKRF [RPS2 C-terminal 12 aa] are within error of each other in protein stability index: 0.717 ± 0.0086 for the first, 0.709 ± 0.039 for the second.

First: YTPDQGVSLIDL [ENT2 C-terminal 12 aa]
Second: YTSWQTIKMWSQ [AVT3 C-terminal 12 aa]
The protein stability index of the first is higher: 0.7 ± 0.015 for the first, 0.654 ± 0.029 for the second.

YVPPPTYTEMAS [ART10 C-terminal 12 aa] and YVSHKGFITEDL [RPL9A C-terminal 12 aa] are within error of each other in protein stability index: 0.66 ± 0.011 for the first, 0.679 ± 0.035 for the second.
